As a reminder, the Ki is a dissociation constant, usually derived from enzyme kinetics or from competition with a known ligand.

Ki data for three molecules are collected here from article PMC8701324, “Structural Insight into the Mechanism of PALB2 Interaction with MRG15” (Genes, 2021).

Residue numbers refer to the chain shown, from its start. Names may count otherwise.

Sequences and labels used below:
B1: WT PALB2^597-630 peptide P621T (peptide)
chain: MLSLKQLLSFLSITDFQLPDEDFGTLKLEKVKSC
B2: WT PALB2^597-630 peptide D616H (peptide)
chain: B1 chain with D20H, T25P
B3: WT PALB2^597-630 peptide P615S (peptide)
chain: B1 chain with P19S, T25P

This test deals with MRG15 MRG domain, amino acids 155-323, Q9UBU8-2. Nature of the test: competition assay (fluorescence anisotropy, displacement of FAM-PALB2 from MRG). The conditions noted are these: chain shown with the change; 10 nM WT FAM-PALB2 peptide; parent: 9.8 ±2.6. In general terms: Fluorescence polarisation rises when a labelled molecule tumbles more slowly, as on binding a larger partner.
Chain of MRG15 MRG domain, amino acids 155-323, Q9UBU8-2 (Q9UBU8 194-362): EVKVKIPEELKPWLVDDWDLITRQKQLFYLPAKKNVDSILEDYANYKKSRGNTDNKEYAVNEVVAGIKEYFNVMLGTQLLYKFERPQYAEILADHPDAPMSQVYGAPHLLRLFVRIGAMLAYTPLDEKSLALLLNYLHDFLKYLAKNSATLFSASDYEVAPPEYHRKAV
With B1, the Ki is 1.7 nM.

For the molecule B2, the inhibitory constant (Ki) is 23.2 nM.

Regarding B3, the Ki was found to be 52.8 nM.
